# In article PMC10065947:
# Columns and labels:
# [1] = target: SH3-588 (UniProt P06241); experiment: fluorescence polarisation
# [2] = target: SH3-588 (UniProt P06241)
# [3] = target: naïve fusion of WT Fyn-SH3 and WT COMT (UniProt P06241)
# [4] = target: naïve fusion 2 (UniProt P06241)
# [5] = target: catechol O-methyltransferase (COMT), wild type (UniProt P22734)
# [6] = target: SH3-003 (UniProt P06241)
# Sequence of catechol O-methyltransferase (COMT), wild type (P22734 44-264): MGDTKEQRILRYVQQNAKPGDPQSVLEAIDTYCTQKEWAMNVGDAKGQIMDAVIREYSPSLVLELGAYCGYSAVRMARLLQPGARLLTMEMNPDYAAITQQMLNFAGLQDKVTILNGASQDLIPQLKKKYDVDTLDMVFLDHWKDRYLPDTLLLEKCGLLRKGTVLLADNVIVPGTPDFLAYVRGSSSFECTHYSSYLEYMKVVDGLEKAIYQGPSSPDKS
Kd [1] [µM],"KM of methylation (steady-state kinetics, MTase-Glo) [2] [µM]","KM of methylation (steady-state kinetics, MTase-Glo) [3] [µM]","KM of methylation (steady-state kinetics, MTase-Glo) [5] [µM]",Binder,also measured
0.69,–,–,–,APPLPPRNRPRRSGKNFLDY (HELM PEPTIDE1{A.P.P.L.P.P.R.N.R.P.R.R.S.G.K.N.F.L.D.[O=C([C@H](Cc1ccc(O)c(O)c1)N[*:1])[*:2]].[am]}$$$$V2.0; N-terminus assumed; SMILES CC(C)C[C@H](NC(=O)[C@H](Cc1ccccc1)NC(=O)[C@H](CC(N)=O)NC(=O)[C@H](CCCCN)NC(=O)CNC(=O)[C@H](CO)NC(=O)[C@H](CCCNC(=N)N)NC(=O)[C@H](CCCNC(=N)N)NC(=O)[C@@H]1CCCN1C(=O)[C@H](CCCNC(=N)N)NC(=O)[C@H](CC(N)=O)NC(=O)[C@H](CCCNC(=N)N)NC(=O)[C@@H]1CCCN1C(=O)[C@@H]1CCCN1C(=O)[C@H](CC(C)C)NC(=O)[C@@H]1CCCN1C(=O)[C@@H]1CCCN1C(=O)[C@H](C)N)C(=O)N[C@@H](CC(=O)O)C(=O)N[C@@H](Cc1ccc(O)c(O)c1)C(N)=O) [peptide 4],–
22,1.5,–,–,APPAPPRNRPRRSGKNFLDY (HELM PEPTIDE1{A.P.P.A.P.P.R.N.R.P.R.R.S.G.K.N.F.L.D.[O=C([C@H](Cc1ccc(O)c(O)c1)N[*:1])[*:2]].[am]}$$$$V2.0; N-terminus assumed; SMILES CC(C)C[C@H](NC(=O)[C@H](Cc1ccccc1)NC(=O)[C@H](CC(N)=O)NC(=O)[C@H](CCCCN)NC(=O)CNC(=O)[C@H](CO)NC(=O)[C@H](CCCNC(=N)N)NC(=O)[C@H](CCCNC(=N)N)NC(=O)[C@@H]1CCCN1C(=O)[C@H](CCCNC(=N)N)NC(=O)[C@H](CC(N)=O)NC(=O)[C@H](CCCNC(=N)N)NC(=O)[C@@H]1CCCN1C(=O)[C@@H]1CCCN1C(=O)[C@H](C)NC(=O)[C@@H]1CCCN1C(=O)[C@@H]1CCCN1C(=O)[C@H](C)N)C(=O)N[C@@H](CC(=O)O)C(=O)N[C@@H](Cc1ccc(O)c(O)c1)C(N)=O) [peptide 5],–
–,130,400,–,EWAPPLPPRNRPRRSYSK (HELM PEPTIDE1{E.W.A.P.P.L.P.P.R.N.R.P.R.R.S.[O=C([C@H](Cc1ccc(O)c(O)c1)N[*:1])[*:2]].S.K.[am]}$$$$V2.0; N-terminus assumed; SMILES CC(C)C[C@H](NC(=O)[C@@H]1CCCN1C(=O)[C@@H]1CCCN1C(=O)[C@H](C)NC(=O)[C@H](Cc1c[nH]c2ccccc12)NC(=O)[C@@H](N)CCC(=O)O)C(=O)N1CCC[C@H]1C(=O)N1CCC[C@H]1C(=O)N[C@@H](CCCNC(=N)N)C(=O)N[C@@H](CC(N)=O)C(=O)N[C@@H](CCCNC(=N)N)C(=O)N1CCC[C@H]1C(=O)N[C@@H](CCCNC(=N)N)C(=O)N[C@@H](CCCNC(=N)N)C(=O)N[C@@H](CO)C(=O)N[C@@H](Cc1ccc(O)c(O)c1)C(=O)N[C@@H](CO)C(=O)N[C@@H](CCCCN)C(N)=O) [peptide 7],"KM of methylation (steady-state kinetics, MTase-Glo) [4]: 0.6 µM"
–,–,–,132,EWAPPLPPRNRPRRSGGSKETYSK (HELM PEPTIDE1{E.W.A.P.P.L.P.P.R.N.R.P.R.R.S.G.G.S.K.E.T.[O=C([C@H](Cc1ccc(O)c(O)c1)N[*:1])[*:2]].S.K.[am]}$$$$V2.0; N-terminus assumed; SMILES CC(C)C[C@H](NC(=O)[C@@H]1CCCN1C(=O)[C@@H]1CCCN1C(=O)[C@H](C)NC(=O)[C@H](Cc1c[nH]c2ccccc12)NC(=O)[C@@H](N)CCC(=O)O)C(=O)N1CCC[C@H]1C(=O)N1CCC[C@H]1C(=O)N[C@@H](CCCNC(=N)N)C(=O)N[C@@H](CC(N)=O)C(=O)N[C@@H](CCCNC(=N)N)C(=O)N1CCC[C@H]1C(=O)N[C@@H](CCCNC(=N)N)C(=O)N[C@@H](CCCNC(=N)N)C(=O)N[C@@H](CO)C(=O)NCC(=O)NCC(=O)N[C@@H](CO)C(=O)N[C@@H](CCCCN)C(=O)N[C@@H](CCC(=O)O)C(=O)N[C@H](C(=O)N[C@@H](Cc1ccc(O)c(O)c1)C(=O)N[C@@H](CO)C(=O)N[C@@H](CCCCN)C(N)=O)[C@@H](C)O) [peptide 2],–
–,19,40,42,MKEARSAEAKEAGRGSGGSKNFLDY (HELM PEPTIDE1{M.K.E.A.R.S.A.E.A.K.E.A.G.R.G.S.G.G.S.K.N.F.L.D.[O=C([C@H](Cc1ccc(O)c(O)c1)N[*:1])[*:2]].[am]}$$$$V2.0; N-terminus assumed; SMILES CSCC[C@H](N)C(=O)N[C@@H](CCCCN)C(=O)N[C@@H](CCC(=O)O)C(=O)N[C@@H](C)C(=O)N[C@@H](CCCNC(=N)N)C(=O)N[C@@H](CO)C(=O)N[C@@H](C)C(=O)N[C@@H](CCC(=O)O)C(=O)N[C@@H](C)C(=O)N[C@@H](CCCCN)C(=O)N[C@@H](CCC(=O)O)C(=O)N[C@@H](C)C(=O)NCC(=O)N[C@@H](CCCNC(=N)N)C(=O)NCC(=O)N[C@@H](CO)C(=O)NCC(=O)NCC(=O)N[C@@H](CO)C(=O)N[C@@H](CCCCN)C(=O)N[C@@H](CC(N)=O)C(=O)N[C@@H](Cc1ccccc1)C(=O)N[C@@H](CC(C)C)C(=O)N[C@@H](CC(=O)O)C(=O)N[C@@H](Cc1ccc(O)c(O)c1)C(N)=O) [peptide 1],"KM of methylation (steady-state kinetics, MTase-Glo) [6]: 30 µM"
–,6,–,–,YDLFNKGSGGAPPLPPRNRPRRS (HELM PEPTIDE1{[N[C@@H](Cc1ccc(O)c(O)c1)C(=O)[*:2]].D.L.F.N.K.G.S.G.G.A.P.P.L.P.P.R.N.R.P.R.R.S.[am]}$$$$V2.0; N-terminus assumed; SMILES CC(C)C[C@H](NC(=O)[C@H](CC(=O)O)NC(=O)[C@@H](N)Cc1ccc(O)c(O)c1)C(=O)N[C@@H](Cc1ccccc1)C(=O)N[C@@H](CC(N)=O)C(=O)N[C@@H](CCCCN)C(=O)NCC(=O)N[C@@H](CO)C(=O)NCC(=O)NCC(=O)N[C@@H](C)C(=O)N1CCC[C@H]1C(=O)N1CCC[C@H]1C(=O)N[C@@H](CC(C)C)C(=O)N1CCC[C@H]1C(=O)N1CCC[C@H]1C(=O)N[C@@H](CCCNC(=N)N)C(=O)N[C@@H](CC(N)=O)C(=O)N[C@@H](CCCNC(=N)N)C(=O)N1CCC[C@H]1C(=O)N[C@@H](CCCNC(=N)N)C(=O)N[C@@H](CCCNC(=N)N)C(=O)N[C@@H](CO)C(N)=O) [peptide 3],–
